# Experiment: soluble on expression in E. coli; label from the status in PepcDB or PDB records
row,Sequence,soluble on expression in E. coli
1,MGSDKIHHHHHHMKSIEELYKRALELKNKGMSDKEISTELHLSVNTVTWLLSKEFLKEGAVQDVKIGWRSVGVFGSRIISIAEIMSDIIREEMNKNSFEVDSILGIAINGIPYATLVSYLMDKELIVYRPHPARKEGVFSSNFASVEGKRVVIIDDVASTGETMRRTITDVTKEGGKPVLCVLLASKMSVNDLNGVPVRSLIRTQVIGGS,not soluble
2,MDLALFDLDETLISDDSTGLWIRWLVNEGLAPFELSEQEQTLMTQYYQGQLSMAGYMAATLSPLVGKHTAEVAGWVEHFIAHDILPRIYPQALEKLAWHRDRGDYIVIISASGEHLVTPIAKHFAADTALSIGVTVENDRYTGQTYGTLTYQKGKVDRLNQWLSASPQLNFKRSYGYSDSINDQPLLEYVDHAAVINPGAELIDLAVLHQWDIHHW,not soluble
3,VFDWDGTLVDSIARIVDSMKAAARETALPERGDTRIKGIIGLGLPEAIASLYPEVGDPALVERFRCAYSEHYLAQEAQPSRLFPGVAEAMVHFREAGFRLAVATGKSRRGLDRVLAGHGWSDFFDITRCADETASKPDPLMLHEILAHCRVEPGRALMIGDSPFDLEMARRAGMDSVAVAYGAQSLEQLRPYAPRLEVEHFTELRAWLGGARREAVS,not soluble
4,MKIVRRDFVRNGPGSVKMVAEDSDDLWYAYNLIAVGDSVMAVTFRKVQREIPGGGRDSERVKLKLEVQVEEVDYDKDGSVLRIRGKNILENEHVKIGAFHTLELELKRPFVLRKEMWDSMALDTLKQASDPAASADLAVVLMQEGLAQIFLVGRSVTSSRARIETSIPRKHGPAIAGYESALKKFFENVLQAFVKHVDFSVVRCAVVASPGFTKDQFHRHLLLEAERRQLRPIIENKSRIILVHTNSGYRHSLGEVLHAPNVMNMIKDTKAAKEVKALNDFHNMLSTEPDRACYGPKHVEVANERMAIQTLLITDELFRNSDVKTRKKYVNLVESVKDSGGDAFIFSAMHVSGEQLAQLTGIAALLRFPLPELEDIEM,soluble
5,NVLYENQKQIANQFNKAISQIQESLTTTSTALGKLQDVVNQNAQALNTLVKQLSSNFGAISSVLNDILSRLDKVEAE,soluble
6,ANIIANTALTIGATKVDVKEITPELLASLNEIGGSEANVASGYHAIEFLLWGQDLNGTKAGAGARSYTDYLQGKACTNNHCDRRAQYLKAAAQLLVTDLEWMEKQWASGEKDNYRQQLLSESAENGLRKMLFGMGSLSLGELAGERMKVALEANSTEDEHDCFSDNTHNSHYYNEQGIYNIYTGSYTRADGSELKGPSLYQLVAEKDANAAKEILQQFEAARTQVGELVTAAEKNNQHFDQLIAADNAAGHAIINQAIMALVAQTGSIERAAGIIGIDNLNPDTADHEF,not soluble
7,GNGFDVENYKDKEIVIVAGGTGVSPVRGVVEYFAKNSKEAKSVTLIAGFKTPKDILFSEDFKEWKNNINIILTVDSAEGDSNFKEGLVTKYIPELKLQNVKEASAIVVGPPAMMRFSTQGLLDVGFKEENMWISQERKMCCGIGKCGHCKIDDVY,not soluble
8,MSLAMNNILGLFAHSPLKPLQKHSEKVTECSDLLIPFFQTTFSKNWEQAEEKRLEISQCEREADSLKREIRLKLPRGLFLPIDRTDLLELVTQQDKLANYAKDIAGRMIGRQFGIPEEMQEEFLHYVKRSLDAIHQAHRVIEEMDKLLETGFKGRELKLVNDMIQELDSIEDDTDQMQIKLRKMLYTIESRYNPIDVMFLYKIIEWVGVLADQAQRVGSRIELMLARSEGHHHHHH,soluble
9,MASTIKEALSVVSEDQSLFECAYGTPHLAKTEMTASSSSDYGQTSKMSPRVPQQDWLSQPPARVTIKMECNPSQVNGSRNSPDECSVAKGGKMVGSPDTVGMNYGSYMEEKHMPPPNMTTNERRVIVPADPTLWSTDHVRQWLEWAVKEYGLPDVNILLFQNIDGKELCKMTKDDFQRLTPSYNADILLSHLHYLRETPLPHLTSDDVDKALQNSPRLMHARNTGGAAFIFPNTSVYPEATQRITTRPDLPYEPPRRSAWTGHGHPTPQSKAAQPSPSTVPKTEDQRPQLDPYQILGPTSSRLANPGSGQIQLWQFLLELLSDSSNSSCITWEGTNGEFKMTDPDEVARRWGERKSKPNMNYDKLSRALRYYYDKNIMTKVHGKRYAYKFDFHGIAQALQPHPPESSLYKYPSDLPYMGSYHAHPQKMNFVAPHPPALPVTSSSFFAAPNPYWNSPTGGIYPNTRLPTSHMPSHLGTYY,soluble
10,MTYCLGVKLKDGLVAIADTRITSGTDTTTAKKLFVHESAHGSLFLMTSGLRSVRDKAITYFKEVLKDEHVVYNQLYEAVNAFGNQLRRVAEEDRKALYAAGFAFNLHTIVGGQLKNDEEPKMFLLYPEGNWIELTQTSPFMIIGNSGYGKPILNRTVKYESTLEEVLKAGFLSFDSTRVSANDVDFPLDVVVYYNNSFKMIEHRFEKKDMEIISTTWDNQLKQALDSVPEEWMNVVFDRKNVLLEHHHHHH,not soluble
11,MGSDKIHHHHHHMSKYDVSISVIMGVYNQNDEKVLREAVDSILNQTFKDFEFIIYDDGSQPDAALILEKIKKIDPRIVLIGQEKNHGLAFSLNACIEQARGKYIARMDADDISDPNRLKVQYDFLEKNPQYSWCGCNARLLDENGIWGTREMPEAPAEKDYLKYSPYIHPTVMYRASLFEETDGYKVSEETLLCEDYEIFMRLRQMGKRGYNIQETLFTYREDSDSYRRRDFKRGINEAKVRFENFNKLHVLFPTGWVYVFRPIIACLVPREMIYILKRMKTRKKPWKKELESELIITGK,not soluble
12,MNPTTLADVDTVIINANILTLDRDCPHAQAIAFAAGRILALGTTQELSPLAGRAATVVDARGSTLLPGFIDSHSHLMFGGVVAQALDLTEAACLSDLLDMVRSRAQSTPEGEWIRGYGVAAGRLKEKRYPTRQELDQVSGGRPVWLAEDSFHASLVNSKAFRMLEIPLSTPGVELAADGSPTGAFLNDAANVPARQRVFGFISDDEARQMLQHVTQLGATRGVTTVHAFEGSRMSADRDIELLMRFRHELPIHVVPYYETFDVERAMQLGVSGVGGCGRNCLDGMPNIQTAAMVDPYCCSEERGSLFQESIKLHNFVIAAFERGMQVGMHAMGDAAIEQLLATYERAIEETGRTDLRPRIEHFHVPSRDHVRRAADLGVGLAVQPIFTHLWGGRDGIFFERLGERRYKRIDTYREILDSGAIASCGADLPVHPADPLRWIQLLVDNQIDRDQSVSMTEAIRMCTYNGAWLGFQESETGTLAVSKAADAVMLGRDPHQCMPHEIAAIPILKTLGGKLVFESSRPLEHHHHHH,not soluble
13,MAIISSLANHLLIAMPSLKDPNFERSVVYLCEHNEQGSVGLIINRPLQFPLSIVFEQLQIEPIRVEKNGLPLLFGGPVQPERGFVIHKQMGGWRSSLFLQDEVTVTTSNDIIRAIAYDEGPKDVLITLGYAAWTEQQLEREIMSNTWLVCPYKSEILYEVPFEERWEYAGLTLGIKMNQLSSDAGHALEHHHHHH,not soluble
14,MAFEKIIQLKNCRYDYTLSPSVKKFTLKDNTFFETKVGNYELTRLLEKVPNSGEGFQLKIIINKELTGAKINITDKFGLRLVDIFKSEDHHIHQEKFYFLMDSLVERGVFTKSER,not soluble
15,MGSDKIHHHHHHMIEFDNLTYLHGKPQGTGLLKANPEDFVVVEDLGFEPDGEGEHILVRILKNGCNTRFVADALAKFLKIHAREVSFAGQKDKHAVTEQWLCARVPGKEMPDLSAFQLEGCQVLEYARHKRKLRLGALKGNAFTLVLREVSNRDDVEQRLIDICVKGVPNYFGAQRFGIGGSNLQGAQRWAQTNTPVRDRNKRSFWLSAARSALFNQIVAERLKKADVNQVVDGDALQLAGRGSWFVATTEELAELQRRVNDKELMITAALPGSGEWGTQREALAFEQAAVAAETELQALLVREKVEAARRAMLLYPQQLSWNWWDDVTVEIRFWLPAGSFATSVVRELINTTGDYAHIAE,not soluble
16,GPGSMSGIKIEEVISTTKKERVAAHSHVKGLGLNPDGTTKHIADGFVGQEKAREAAGIAVELIRSKKMAGRALLFAGPPGTGKTALALGIAKELGPKVPFCPMVGSEVYSAEVKKTEVLMENFRRAIGLRIKENKEVYEGEVTELRAEETDNPLGGYGKSISHVIITLKSQKGSKLLKLDAAIYESLEKEKVSVGDVIYIEASSGAVKRVGRSDAYIGDHDLEADEYVPIPKGDVHKKKEVIQDVTLHDLDMANAKPSQGQDALSIVSSMMRHKKTEVTEKLRQEINKVVNKYIDQGVAELVPGVLFIDEVHMLDIECFTYLNKALESTLAPVVIFATNRGSCRIRGTEIRAPHGMPTDLLDRLLIIRTMNYDVSEITSIVEIRAHVEGVKISEAALTKLGIIGESTSLRFVVQLLTPALIIAETNGREMLEEEDVDLVAELFKDGKASARQLQDHAEEYVYQ,soluble
17,NYASHTERQILEVSPVVADEALAQALECKPGTTWLRVRMLRVEKDAAHTPLCWNDAYMLPDVGQRIVGKIPNGSGLLCRIIENEAGIAVADIKQSIGATAIEGEMASRLGVAPGTPGLEITRLYVDRANTPFLITVNTYSAHKFR,not soluble
18,MAVNLYDYANQLEQALRESEEYKAIKEAFANVKANEESKKLFDEFRETQINFQQKQMQGEEIAEEDLQKAQEQAQAIEKDENISALMNAEQKMSQVFQEINQIIVKPLDEIYAD,not soluble
19,MASCVLTHSPPPPMTAKSPPIPAPSPEQIGLRIRALRKRQKRTLAWLSAQCGLDKGFLSRLERGEKSASVGTLHTVAGALGSSLSALLGEADPQTEIQIVRAADRHRMTTAPGPGEHIYEAITLGSSHSGLSVMVVEVGTHGAHTEAHHGGDELIFVLDGRIRVHFGGHTVLLERDDSVRFPGYLPHSLSAEGRKLARALVVIASG,not soluble
20,MGSDKIHHHHHHACDDNKDEFLDEFSTILSFRNCDEIEVEVYNTGENGEYQLIVNKSGAQLGTVTRASIDVMDKALLEIYNEQNGKDYQLYPEDCYVFNGDKQIEFGPNDTYQTRSVTLITDKILESNQQEGNFVIPFILQNSADSINAERKYVFLKPAVIVPNVAFEKTGYNLNIISDAMDANEIELNLPAVFSVDNKWNFSCTLEPDESLLTEYNEKNGVDYTMLSEEAYTLSNEGKILFTAGSKSASLTVTVKRNKLSYGNYVLPLKMTQCSSPYFEINPNKQSCLFGISYVPDESKLHPVTLSRGMTAIHPNREVEGKIDYMFDGNPDTYYHSDYLEEPGLPHWIQLNLDEPHTALMFEYQVRHNNNNGAPQRISVLGSMDGITFSKIMTIMEGFPTATKGTYKSPVLVGKEFKHIRLVVESTPAGNSFALAELKLHVN,not soluble
21,MAHHHHHHMPYIASIDQGTTSSRCIIFDEKFTILSAHQLFHKQITPRPGWLEHDPEEIYSNCCLCLAEALKKLRSKDPKFEKVSAIGITNQRETGVAWDRKTGKPLCNAIVWSDARTYEVSNRIAKECGGGDRNFAANITGLPVSTYFTAFKFRWMLENVPAVAAARKSGSLLLGTIETWLLWKLSEGKVFLTDVSNASRTFLMNLRTQQWCDKLCQELDIPLAALPEIRSNSERYCDVVANDHGIRDALGVPTPVTGCIGDQQSALFGHIGLHKGDAKNTYGTGCFMLMNVGTEPQFSKHGLLGTIAYKLGTEPTKFALEGSVAGAGATVEWMRSNLGFFDHPMQMESIARKVGGTDGVVFVPAFGGLLAPYWDPTARGTLVGMTYKTNKSHIIRAALEAISMQVNAVMLAMKEDSGVEMNCLRVDGGLTRSRLLMEMQADILGVNLYVPHLTETTALGAALCAGLAVGVWKSVEEMQKTAKEHLSGETVNPITTDEQVRKARLEAWNAAVKLSRWAKL,soluble
22,VWPTAKQAASLIGLDPKLLVAQAALETGWGRFVTRDADGSSSNNLFNIKTGSHSEVESIQVKTTEYIADTPIKINASFRKYPSIEHSFHDYVSLIKGSERYQMALANAENPEIFVSELNKAGYATDPNYSNKILSIYHGDELNQAIQRCESFEQS,not soluble

# Source: the DeepSol protein solubility set
